Experimental data as given in article doi:10.1101/262477 (bioRxiv, 2018).
Read-outs that look alike come from different tables or passages of the source.

What was measured:
[1] = molecular target: T1, NFS1-ISD11 complex (SD), purified, His tag removed (human, UniProt Q9Y697 56-457; Q9HD34 1-91); assay: BLI
[2] = molecular target: T1, NFS1-ISD11 complex (SD), purified, His …; assay: BLI; remark: listed apart in the source

T1 sequence (Q9Y697 56-457, chain 1 of 2): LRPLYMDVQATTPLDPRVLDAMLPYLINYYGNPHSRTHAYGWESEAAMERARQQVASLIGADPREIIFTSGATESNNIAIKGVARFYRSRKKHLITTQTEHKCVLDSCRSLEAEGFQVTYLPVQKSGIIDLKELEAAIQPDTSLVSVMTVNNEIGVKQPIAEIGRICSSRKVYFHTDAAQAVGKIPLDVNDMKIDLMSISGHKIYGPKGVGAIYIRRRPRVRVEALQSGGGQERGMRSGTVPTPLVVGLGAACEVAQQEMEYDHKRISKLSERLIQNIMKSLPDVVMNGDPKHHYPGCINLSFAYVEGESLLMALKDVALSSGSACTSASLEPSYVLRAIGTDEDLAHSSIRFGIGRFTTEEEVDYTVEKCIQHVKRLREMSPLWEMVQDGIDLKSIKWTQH
T1 sequence (Q9HD34 whole entry, chain 2 of 2): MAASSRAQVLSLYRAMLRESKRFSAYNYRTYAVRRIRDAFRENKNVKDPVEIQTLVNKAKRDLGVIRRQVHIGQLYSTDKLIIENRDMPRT

Kd [1]: 160 ± 26 nM
Kd [2]: 87.8 ± 7 nM
B1: biotinylated human ISCU (Δ1-34), wild type (natural protein, UniProt Q9H1K1 35-167, looked up)
chain: YHKKVVDHYENPRNVGSLDKTSKNVGTGLVGAPACGDVMKLQIQVDEKGKIVDARFKTFGCGSAIASSSLATEWVKGKTVEEALTIKNTDIAKELCLPPVKLHCSMLAEDAIKAALADYKLKQEPKKGEAEKK
modifications: biotin (site not stated)
